Patent US20140179593A1 (published 2014)
Starred links: 1 amine or outer side, 2 acyl side, 3 side chain; linkers in the order of their positions; H or OH if unused. Positions of bridges follow the written chain, without caps; N, C: chain ends. Non-standard residues stand in square brackets, D forms with d. *: point of attachment. αMeNva(5-ylidene) = C[C@@](CCC=[*:3])(N[*:1])C(=O)[*:2]; S8 = C=CCCCCCC[C@](C)(N)C(=O)O; SeMet = C[Se]CC[C@H](N)C(=O)O; S5 = C=CCCC[C@](C)(N)C(=O)O; Nle = CCCC[C@H](N)C(=O)O; For = O=C*

How the values were obtained:
[1] = biological target: T1, hDcn1^P (potentiating neddylation / PONY domain of human Dcn1, DCUN1D1) (Homo sapiens, UniProt Q96GG9 62-259); experiment: ITC, peptide titrated into Dcn PONY domain
T1 construct: also called DCUN1D1^P; SCCRO PONY domain
T1 sequence (Q96GG9 62-259): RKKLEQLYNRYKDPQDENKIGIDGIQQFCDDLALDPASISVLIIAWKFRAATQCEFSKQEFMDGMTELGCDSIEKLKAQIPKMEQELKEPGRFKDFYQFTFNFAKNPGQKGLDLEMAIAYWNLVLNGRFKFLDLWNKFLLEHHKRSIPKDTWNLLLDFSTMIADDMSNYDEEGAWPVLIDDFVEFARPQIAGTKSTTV
Description: (§1) Protein samples were buffer matched by desalting over a NAP-5 column (GE Healthcare) into 50 mM Hepes, 125 mM NaCl, 1 mM BME, pH 7.0 (ITC buffer). Peptides were dissolved by weight to a final concentration of 10 mM in ITC buffer and diluted further in ITC buffer as required for the experiments. […] The peptide ligands (4 mM) were constantly injected (1.5 μl). The interval time between each injection was 3 minutes and the duration of each injection was 3 seconds. […] Peptide ligands (250 μM) were constantly injected (2.5 μl). The interval time between each injection was three minutes and the duration of each injection was 5 seconds. […] The interval time between each injection was 3 minutes and the duration of each injection was 5 seconds. Obtained spectra were evaluated using Origin (V 7.0) to determine heats of binding and Kd values.

[2] = biological target: hDcn2^P (PONY domain of human DCUN1D2) (Homo sapiens, UniProt Q6PH85 62-259); experiment: ITC, peptide titrated into Dcn PONY domain
Chain of hDcn2^P (PONY domain of human DCUN1D2) (Q6PH85 62-259 limits assumed): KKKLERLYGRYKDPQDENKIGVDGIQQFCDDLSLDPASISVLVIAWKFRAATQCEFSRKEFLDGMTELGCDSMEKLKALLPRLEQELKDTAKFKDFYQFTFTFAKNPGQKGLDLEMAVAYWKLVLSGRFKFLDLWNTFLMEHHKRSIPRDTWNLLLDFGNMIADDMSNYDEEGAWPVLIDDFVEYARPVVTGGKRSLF
Description: as §1

[3] = biological target: T1, hDcn1^P (potentiating neddylation / …); experiment: ITC, two-site fit, first value
Description: as §1

[4] = biological target: T2, hDcn3^P (PONY domain of human DCUN1D3) (Homo sapiens, UniProt Q8IWE4 86-304); experiment: ITC, peptide titrated into Dcn PONY domain
T2 sequence: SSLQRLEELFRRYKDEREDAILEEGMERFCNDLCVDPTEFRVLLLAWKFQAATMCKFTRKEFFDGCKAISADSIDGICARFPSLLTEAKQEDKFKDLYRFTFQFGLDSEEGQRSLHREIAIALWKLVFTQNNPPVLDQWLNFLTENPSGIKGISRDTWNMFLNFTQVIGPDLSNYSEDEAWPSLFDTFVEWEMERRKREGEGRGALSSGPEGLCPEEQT
Description: as §1

[5] = biological target: T3, yE1 for yNedd8 (Ula1-Uba3) (Saccharomyces cerevisiae, UniProt Q12059 1-462, limits assumed); experiment: ITC, peptide titrated into yE1
T3 construct: Heterodimeric E1 expressed in E. coli as described in earlier publications
T3 sequence 1: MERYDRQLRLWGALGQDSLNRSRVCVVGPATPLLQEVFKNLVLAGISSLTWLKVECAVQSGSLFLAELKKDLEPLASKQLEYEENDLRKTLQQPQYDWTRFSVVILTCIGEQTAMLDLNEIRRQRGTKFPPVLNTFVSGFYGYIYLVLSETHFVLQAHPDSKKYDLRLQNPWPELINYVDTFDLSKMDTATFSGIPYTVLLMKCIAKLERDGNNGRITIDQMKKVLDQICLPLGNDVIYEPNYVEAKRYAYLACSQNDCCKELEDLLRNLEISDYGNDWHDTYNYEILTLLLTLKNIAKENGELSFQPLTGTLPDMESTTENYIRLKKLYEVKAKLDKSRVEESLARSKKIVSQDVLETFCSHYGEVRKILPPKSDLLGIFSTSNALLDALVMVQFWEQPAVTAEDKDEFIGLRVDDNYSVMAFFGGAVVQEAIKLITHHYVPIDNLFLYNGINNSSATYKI
T3 sequence 2: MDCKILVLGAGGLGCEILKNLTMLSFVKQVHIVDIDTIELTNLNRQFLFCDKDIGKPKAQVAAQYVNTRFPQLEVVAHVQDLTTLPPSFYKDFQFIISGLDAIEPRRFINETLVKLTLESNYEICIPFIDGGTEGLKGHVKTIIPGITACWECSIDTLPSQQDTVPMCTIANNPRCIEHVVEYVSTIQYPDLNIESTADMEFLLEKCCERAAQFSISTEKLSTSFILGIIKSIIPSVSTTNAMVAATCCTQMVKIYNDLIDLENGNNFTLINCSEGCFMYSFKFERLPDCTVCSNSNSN
Description: (§2) To gain insights into mechanistic roles of Ubc12 N-terminal acetylation, isothermal titration calorimetry (ITC) was used to quantify interactions with peptides corresponding to the N-termini of yeast or human Ubc12.
as §1

[6] = biological target: T4, yDcn1^P (potentiating neddylation / PONY domain of Saccharomyces cerevisiae Dcn1) (Saccharomyces cerevisiae, UniProt Q12395 70-269); experiment: ITC, peptide titrated into yDcn1^P
T4 construct: NEDD8 co-E3; Expressed in E. coli
T4 sequence: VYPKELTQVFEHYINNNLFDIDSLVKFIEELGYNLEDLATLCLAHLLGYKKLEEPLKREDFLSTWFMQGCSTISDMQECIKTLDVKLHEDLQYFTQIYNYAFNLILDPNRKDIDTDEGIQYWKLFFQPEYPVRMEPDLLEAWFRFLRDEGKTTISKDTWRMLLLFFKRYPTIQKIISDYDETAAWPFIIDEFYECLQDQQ
Description: as §2, §1

B1: yUbc12^Ac1-12 (NorLeu) (peptide)
peptide: Ac-[Nle]LKLRQLQKKKQ-NH2
SMILES: CCCC[C@H](NC(C)=O)C(=O)N[C@@H](CC(C)C)C(=O)N[C@@H](CCCCN)C(=O)N[C@@H](CC(C)C)C(=O)N[C@@H](CCCNC(=N)N)C(=O)N[C@@H](CCC(N)=O)C(=O)N[C@@H](CC(C)C)C(=O)N[C@@H](CCC(N)=O)C(=O)N[C@@H](CCCCN)C(=O)N[C@@H](CCCCN)C(=O)N[C@@H](CCCCN)C(=O)N[C@@H](CCC(N)=O)C(N)=O
- Kd [1]: 628 nM
- Kd [2]: 793 nM

B2: hUbc12^Ac1-12 (NorLeu) 5, 9 (peptide)
peptide: Ac-[Nle]IKL[S5]SLK[S5]QKK-NH2
modifications: staple 5-9
SMILES: CCCC[C@H](NC(C)=O)C(=O)N[C@H](C(=O)N[C@@H](CCCCN)C(=O)N[C@@H](CC(C)C)C(=O)N[C@@]1(C)CCCC=CCCC[C@@](C)(C(=O)N[C@@H](CCC(N)=O)C(=O)N[C@@H](CCCCN)C(=O)N[C@@H](CCCCN)C(N)=O)NC(=O)[C@H](CCCCN)NC(=O)[C@H](CC(C)C)NC(=O)[C@H](CO)NC1=O)[C@@H](C)CC
notes: Stapled synthetic peptide
- Kd [1]: 440 nM

B3: hUbc12^Ac1-12 (Met) RR 6, 10 (peptide)
peptide: Ac-MIKLF[(R)‑2‑(4-pentenyl)alanine]LKQ[(R)‑2‑(4-pentenyl)alanine]KK-NH2
modifications: staple 6-10
notes: Stapled synthetic peptide; 'RR' is not explained in the text
- Kd [3]: 340 nM

B4: hUbe2f^Ac1-25 (peptide)
peptide: Ac-MLTLASKLKRDDGLKGSRTAATASD-NH2
notes: Synthetic peptide of the N-terminus of human Ube2f; also called Acetyl-hUbe2f^1-25
- Kd [4]: 2000 nM

Binder: Ac-MIK(Ac)LFSLKQQKKEEESAGGTKGSSKK-NH2 (Synthetic peptide) [hUbc12^Ac1-Ac3-26]
- Kd [1]: 4600 nM

B5: hUbc12^Ac1-12 (Met) 5, 9 (peptide)
peptide: Ac-MIKL[S5]SLK[S5]QKK-NH2
modifications: staple 5-9
notes: also called Acetyl-hUbc12^1-12(5:9Staple)
- Kd [1]: 153 nM

B6: hUbc12^Formyl-1-26 (peptide)
peptide: For-MIKLFSLKQQKKEEESAGGTKGSSKK-NH2
SMILES: CC[C@H](C)[C@H](NC(=O)[C@H](CCSC)NC=O)C(=O)N[C@@H](CCCCN)C(=O)N[C@@H](CC(C)C)C(=O)N[C@@H](Cc1ccccc1)C(=O)N[C@@H](CO)C(=O)N[C@@H](CC(C)C)C(=O)N[C@@H](CCCCN)C(=O)N[C@@H](CCC(N)=O)C(=O)N[C@@H](CCC(N)=O)C(=O)N[C@@H](CCCCN)C(=O)N[C@@H](CCCCN)C(=O)N[C@@H](CCC(=O)O)C(=O)N[C@@H](CCC(=O)O)C(=O)N[C@@H](CCC(=O)O)C(=O)N[C@@H](CO)C(=O)N[C@@H](C)C(=O)NCC(=O)NCC(=O)N[C@H](C(=O)N[C@@H](CCCCN)C(=O)NCC(=O)N[C@@H](CO)C(=O)N[C@@H](CO)C(=O)N[C@@H](CCCCN)C(=O)N[C@@H](CCCCN)C(N)=O)[C@@H](C)O
notes: Synthetic peptide; also called Formyl-hUbc12^1-26
- Kd [1]: 9700 nM

Binder: Ac-[SeMet]IKL[S5]SLK[S5]QKK-NH2 (staple 5-9, Stapled synthetic peptide) [hUbc12^Ac1-12 (SeMet) 5, 9]
- Kd [1]: 182 nM

B7: yUbc12^Ac1-12 (NorLeu) 5, 9 (peptide)
peptide: Ac-[Nle]LKL[S5]QLQ[S5]KKQ-NH2
modifications: staple 5-9
SMILES: CCCC[C@H](NC(C)=O)C(=O)N[C@@H](CC(C)C)C(=O)N[C@@H](CCCCN)C(=O)N[C@@H](CC(C)C)C(=O)N[C@@]1(C)CCCC=CCCC[C@@](C)(C(=O)N[C@@H](CCCCN)C(=O)N[C@@H](CCCCN)C(=O)N[C@@H](CCC(N)=O)C(N)=O)NC(=O)[C@H](CCC(N)=O)NC(=O)[C@H](CC(C)C)NC(=O)[C@H](CCC(N)=O)NC1=O
notes: Stapled synthetic peptide
- Kd [1]: 418 nM
- Kd [2]: 515 nM

Binder: Ac-MIKLKSLKEQKK-NH2 (bridge 5-9; also: K5-E9 staple, chemistry not given here, Stapled synthetic peptide) [hUbc12^Ac1-12 (Met) KE 5, 9]
- Kd [1]: 1060 nM

Binder: Ac-LKLRQLQKKKQKENENSSSIQPN-NH2 (Synthetic peptide lacking Met1) [Acetyl-yUbc12^2-24 peptide]
- Kd [5]: 1580 nM
- N (stoichiometry) [5]: 0.92
- ΔH [5]: -9.62 kcal/mol
- ΔS [5]: -7.21 cal/mol/deg
- ΔH [6]: 3.76 kcal/mol
- ΔS [6]: 33.4 cal/mol/deg

Binder: XIKLFSLKQQKK (N-terminal acetyl; norleucine at position 1 in place of Met; C-terminal amide, Synthetic peptide) [hUbc12^Ac1-12 (NorLeu)]
- Kd [1]: 5600 nM

B8: Acetyl-yUbc12^1-24 peptide (peptide)
peptide: Ac-MLKLRQLQKKKQKENENSSSIQPN-NH2
notes: Synthetic peptide; also called yUbc12^Ac1-24
- Kd [5]: 16 nM
- N (stoichiometry) [5]: 0.99
- ΔH [5]: -11.3 kcal/mol
- ΔS [5]: -3.8 cal/mol/deg
- Kd [6]: 444 nM
- ΔH [6]: 4.15 kcal/mol
- ΔS [6]: 43.6 cal/mol/deg

Binder: Ac-MIKLFKLKQEKK-NH2 (bridge 6-10; also: K6-E10 staple, chemistry not given here, Stapled synthetic peptide) [hUbc12^Ac1-12 (Met) KE 6, 10]
- Kd [1]: 483 nM

B9: hUbc12^Ac1-12 (Met) Oct:But 6, 10 (peptide)
peptide: Ac-MIKLF[S8]LKQ[αMeNva(5-ylidene)]KK-NH2
modifications: staple 6-10
notes: Stapled synthetic peptide; by the label the octenyl- and butenyl-alanine residues stand in the reverse order of the But:Oct peptide
- Kd [1]: 129 nM
